Experimental data reported in US20170081400A1 (CEPHALON, published 2017).

T1: human TL1A extracellular domain with N-terminal HIS and FLAG tag (human, UniProt O95150 72-251)
T1 construct: the whole entry is named; also called TNFSF15
T1 sequence: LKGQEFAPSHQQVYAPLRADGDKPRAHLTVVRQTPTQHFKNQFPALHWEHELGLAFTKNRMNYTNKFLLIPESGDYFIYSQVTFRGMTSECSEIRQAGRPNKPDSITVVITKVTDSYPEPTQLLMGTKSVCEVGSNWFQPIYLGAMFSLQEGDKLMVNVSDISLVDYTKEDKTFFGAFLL


Experiments:
[1] = molecular target: T1, human TL1A extracellular domain with …; test: SPR Run 7, antibody on Protein A, TL1A 5 ug/mL, timepoint 220
Source text: (§1) 1.5. Antibody expression and antigen binding as determined by SPR. Using a CM5 sensor chip (GE Healthcare) Protein A (Pierce) was coupled to the chip surface using an amine coupling kit (GE Healthcare). Protein A was coupled on flow cell 1 and 2 (or alternatively 3 and 4) using a BIACORE® T200. […] The amount of supernatant or purified protein (as well as the concentration) injected during the capture stage varied between runs and is specified in the header of the Tables 3-11. At the end of injection of the supernatant or purified antibody the change in response units was measured. This value was reported as Capture Level in Tables 3-11. […] The response units were measured prior to the end of the dissociation phase. […] The sensorgrams were double referenced (flow cell 2 is subtracted from flow cell 1 and a buffer blank). As there were a large number of antibody variants to screen, these were screened across different runs (Tables 3-11). […] A summary of the conditions used in each run is below:
(§2) 2.1. […] In some experiment the antibodies were purified using Protein A chromatography (See 1.4) and purified antibodies were used in BIACORE® (GE Healthcare) experiments.

[2] = molecular target: T1, human TL1A extracellular domain with …; test: SPR Run 7, antibody on Protein A, TL1A 5 ug/mL, timepoint 44
Source text: as §1, §2

Row | Binder | TL1A Binding Level (Late) [1] [RU] | TL1A Binding Level (Early) [2] [RU]
1 | 320-544 (antibody, human IgG1, name in Kabat numbering, V domains shown, full-length human IgG1, lambda) VH: QVQLVQSGAEVKKPGASVKVSCKASGYTFTSYDINWVRQAPGQGLEWMGWLNPNSGKTGYAQKFQGRVTMTADRSTSTAYMELSSLRSEDTAVYYCAREVPETAAFEYWGQGTLVTVSS VL: QSVLTQPPSVSGAPGQRVTISCTSSSSDIGAGLGVHWYQQLPGTAPKLLIEGYYNRPSGVPDRFSGSKSGTSASLTITGLLPEDEGDYYCQSYDGTLSALFGGGTKLTVLG | 112 | 120
2 | 320-550 (antibody, human IgG1, name in Kabat numbering, V domains shown, full-length human IgG1, lambda) VH: QVQLVQSGAEVKKPGASVKVSCKASGYTFTSYDINWVRQAPGQGLEWMGWLNPNSGNQGYAQKFQGRVTMTADRSTSTAYMELSSLRSEDTAVYYCAREVPETAAFEYWGQGTLVTVSS VL: QSVLTQPPSVSGAPGQRVTISCTSSSSDIGAGLGVHWYQQLPGTAPKLLIEGYYNRPSGVPDRFSGSKSGTSASLTITGLLPEDEGDYYCQSYDGTLSALFGGGTKLTVLG | 103 | 112
3 | 320-551 (antibody, human IgG1, name in Kabat numbering, V domains shown, full-length human IgG1, lambda) VH: QVQLVQSGAEVKKPGASVKVSCKASGYTFTSYDINWVRQAPGQGLEWMGWLNPNSGNDGYAQKFQGRVTMTADRSTSTAYMELSSLRSEDTAVYYCAREVPETAAFEYWGQGTLVTVSS VL: QSVLTQPPSVSGAPGQRVTISCTSSSSDIGAGLGVHWYQQLPGTAPKLLIEGYYNRPSGVPDRFSGSKSGTSASLTITGLLPEDEGDYYCQSYDGTLSALFGGGTKLTVLG | 36 | 44
4 | 320-545 (antibody, human IgG1, name in Kabat numbering, V domains shown, full-length human IgG1, lambda) VH: QVQLVQSGAEVKKPGASVKVSCKASGYTFTSYDINWVRQAPGQGLEWMGWLNPNSGLTGYAQKFQGRVTMTADRSTSTAYMELSSLRSEDTAVYYCAREVPETAAFEYWGQGTLVTVSS VL: QSVLTQPPSVSGAPGQRVTISCTSSSSDIGAGLGVHWYQQLPGTAPKLLIEGYYNRPSGVPDRFSGSKSGTSASLTITGLLPEDEGDYYCQSYDGTLSALFGGGTKLTVLG | 100 | 109
5 | 320-546 (antibody, human IgG1, name in Kabat numbering, V domains shown, full-length human IgG1, lambda) VH: QVQLVQSGAEVKKPGASVKVSCKASGYTFTSYDINWVRQAPGQGLEWMGWLNPNSGWTGYAQKFQGRVTMTADRSTSTAYMELSSLRSEDTAVYYCAREVPETAAFEYWGQGTLVTVSS VL: QSVLTQPPSVSGAPGQRVTISCTSSSSDIGAGLGVHWYQQLPGTAPKLLIEGYYNRPSGVPDRFSGSKSGTSASLTITGLLPEDEGDYYCQSYDGTLSALFGGGTKLTVLG | 61 | 67
6 | 320-548 (antibody, human IgG1, name in Kabat numbering, V domains shown, full-length human IgG1, lambda) VH: QVQLVQSGAEVKKPGASVKVSCKASGYTFTSYDINWVRQAPGQGLEWMGWLNPNSGNAGYAQKFQGRVTMTADRSTSTAYMELSSLRSEDTAVYYCAREVPETAAFEYWGQGTLVTVSS VL: QSVLTQPPSVSGAPGQRVTISCTSSSSDIGAGLGVHWYQQLPGTAPKLLIEGYYNRPSGVPDRFSGSKSGTSASLTITGLLPEDEGDYYCQSYDGTLSALFGGGTKLTVLG | 68 | 74
7 | 320-549 (antibody, human IgG1, name in Kabat numbering, V domains shown, full-length human IgG1, lambda) VH: QVQLVQSGAEVKKPGASVKVSCKASGYTFTSYDINWVRQAPGQGLEWMGWLNPNSGNSGYAQKFQGRVTMTADRSTSTAYMELSSLRSEDTAVYYCAREVPETAAFEYWGQGTLVTVSS VL: QSVLTQPPSVSGAPGQRVTISCTSSSSDIGAGLGVHWYQQLPGTAPKLLIEGYYNRPSGVPDRFSGSKSGTSASLTITGLLPEDEGDYYCQSYDGTLSALFGGGTKLTVLG | 45 | 50

Next, values leading:

Row | TL1A Binding Level (Late) [1] [RU] | TL1A Binding Level (Early) [2] [RU] | Binder
8 | 97 | 104 | 320-552 (antibody, human IgG1, name in Kabat numbering, V domains shown, full-length human IgG1, lambda) VH: QVQLVQSGAEVKKPGASVKVSCKASGYTFTSYDINWVRQAPGQGLEWMGWLNPNSGNHGYAQKFQGRVTMTADRSTSTAYMELSSLRSEDTAVYYCAREVPETAAFEYWGQGTLVTVSS VL: QSVLTQPPSVSGAPGQRVTISCTSSSSDIGAGLGVHWYQQLPGTAPKLLIEGYYNRPSGVPDRFSGSKSGTSASLTITGLLPEDEGDYYCQSYDGTLSALFGGGTKLTVLG
9 | 78 | 84 | 320-553 (antibody, human IgG1, name in Kabat numbering, V domains shown, full-length human IgG1, lambda) VH: QVQLVQSGAEVKKPGASVKVSCKASGYTFTSYDINWVRQAPGQGLEWMGWLNPNSGNKGYAQKFQGRVTMTADRSTSTAYMELSSLRSEDTAVYYCAREVPETAAFEYWGQGTLVTVSS VL: QSVLTQPPSVSGAPGQRVTISCTSSSSDIGAGLGVHWYQQLPGTAPKLLIEGYYNRPSGVPDRFSGSKSGTSASLTITGLLPEDEGDYYCQSYDGTLSALFGGGTKLTVLG
10 | 6 | 26 | 320-557 (antibody, human IgG1, name in Kabat numbering, V domains shown, full-length human IgG1, lambda) VH: QVQLVQSGAEVKKPGASVKVSCKASGYTFTSYDINWVRQAPGQGLEWMGWLNPNSGNTAYAQKFQGRVTMTADRSTSTAYMELSSLRSEDTAVYYCAREVPETAAFEYWGQGTLVTVSS VL: QSVLTQPPSVSGAPGQRVTISCTSSSSDIGAGLGVHWYQQLPGTAPKLLIEGYYNRPSGVPDRFSGSKSGTSASLTITGLLPEDEGDYYCQSYDGTLSALFGGGTKLTVLG
11 | 6 | 14 | 320-561 (antibody, human IgG1, name in Kabat numbering, V domains shown, full-length human IgG1, lambda) VH: QVQLVQSGAEVKKPGASVKVSCKASGYTFTSYDINWVRQAPGQGLEWMGWLNPNSGNTHYAQKFQGRVTMTADRSTSTAYMELSSLRSEDTAVYYCAREVPETAAFEYWGQGTLVTVSS VL: QSVLTQPPSVSGAPGQRVTISCTSSSSDIGAGLGVHWYQQLPGTAPKLLIEGYYNRPSGVPDRFSGSKSGTSASLTITGLLPEDEGDYYCQSYDGTLSALFGGGTKLTVLG
12 | 67 | 72 | 320-564 (antibody, human IgG1, name in Kabat numbering, V domains shown, full-length human IgG1, lambda) VH: QVQLVQSGAEVKKPGASVKVSCKASGYTFTSYDINWVRQAPGQGLEWMGWLNPNSGNTWYAQKFQGRVTMTADRSTSTAYMELSSLRSEDTAVYYCAREVPETAAFEYWGQGTLVTVSS VL: QSVLTQPPSVSGAPGQRVTISCTSSSSDIGAGLGVHWYQQLPGTAPKLLIEGYYNRPSGVPDRFSGSKSGTSASLTITGLLPEDEGDYYCQSYDGTLSALFGGGTKLTVLG
13 | 9 | 36 | 320-560 (antibody, human IgG1, name in Kabat numbering, V domains shown, full-length human IgG1, lambda) VH: QVQLVQSGAEVKKPGASVKVSCKASGYTFTSYDINWVRQAPGQGLEWMGWLNPNSGNTDYAQKFQGRVTMTADRSTSTAYMELSSLRSEDTAVYYCAREVPETAAFEYWGQGTLVTVSS VL: QSVLTQPPSVSGAPGQRVTISCTSSSSDIGAGLGVHWYQQLPGTAPKLLIEGYYNRPSGVPDRFSGSKSGTSASLTITGLLPEDEGDYYCQSYDGTLSALFGGGTKLTVLG
14 | 5 | 9 | 320-559 (antibody, human IgG1, name in Kabat numbering, V domains shown, full-length human IgG1, lambda) VH: QVQLVQSGAEVKKPGASVKVSCKASGYTFTSYDINWVRQAPGQGLEWMGWLNPNSGNTQYAQKFQGRVTMTADRSTSTAYMELSSLRSEDTAVYYCAREVPETAAFEYWGQGTLVTVSS VL: QSVLTQPPSVSGAPGQRVTISCTSSSSDIGAGLGVHWYQQLPGTAPKLLIEGYYNRPSGVPDRFSGSKSGTSASLTITGLLPEDEGDYYCQSYDGTLSALFGGGTKLTVLG
15 | 30 | 62 | 320-555 (antibody, human IgG1, name in Kabat numbering, V domains shown, full-length human IgG1, lambda) VH: QVQLVQSGAEVKKPGASVKVSCKASGYTFTSYDINWVRQAPGQGLEWMGWLNPNSGNWGYAQKFQGRVTMTADRSTSTAYMELSSLRSEDTAVYYCAREVPETAAFEYWGQGTLVTVSS VL: QSVLTQPPSVSGAPGQRVTISCTSSSSDIGAGLGVHWYQQLPGTAPKLLIEGYYNRPSGVPDRFSGSKSGTSASLTITGLLPEDEGDYYCQSYDGTLSALFGGGTKLTVLG
16 | 90 | 100 | 320-556 (antibody, human IgG1, name in Kabat numbering, V domains shown, full-length human IgG1, lambda) VH: QVQLVQSGAEVKKPGASVKVSCKASGYTFTSYDINWVRQAPGQGLEWMGWLNPNSGNYGYAQKFQGRVTMTADRSTSTAYMELSSLRSEDTAVYYCAREVPETAAFEYWGQGTLVTVSS VL: QSVLTQPPSVSGAPGQRVTISCTSSSSDIGAGLGVHWYQQLPGTAPKLLIEGYYNRPSGVPDRFSGSKSGTSASLTITGLLPEDEGDYYCQSYDGTLSALFGGGTKLTVLG
17 | 51 | 66 | 320-554 (antibody, human IgG1, name in Kabat numbering, V domains shown, full-length human IgG1, lambda) VH: QVQLVQSGAEVKKPGASVKVSCKASGYTFTSYDINWVRQAPGQGLEWMGWLNPNSGNLGYAQKFQGRVTMTADRSTSTAYMELSSLRSEDTAVYYCAREVPETAAFEYWGQGTLVTVSS VL: QSVLTQPPSVSGAPGQRVTISCTSSSSDIGAGLGVHWYQQLPGTAPKLLIEGYYNRPSGVPDRFSGSKSGTSASLTITGLLPEDEGDYYCQSYDGTLSALFGGGTKLTVLG
